Data taken from the supplement of paper PMC7125110.
± gives the standard error. For some assays here: Fewer inactive variants are shown than the library holds.

B1: glmS ribozyme (parent)
chain: AUAAAAGCGCCAGAACUACAGAAAUGUAGUUGACGAGGAGGAGGUUUAUCGAAUUUUCGGCGGAUGCCUCCAAA

Key:
Settings in all cases: with glucosamine-6-phosphate
glucosamine-6-phosphate [1] = variants of: B1; assay: kcat; higher = faster cleavage; RNA array
Summary of the method: (§1)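 Glucosamine-6-phosphate, from 40 μM to 10 mM in HEPES/KCl/Mg(OAc)2 buffer, was flowed over sequenced MiSeq chips carrying barcoded ribozyme variants transcribed in situ by E. coli RNA polymerase. A hybridised Cy3 probe tracked the variants at 37 °C as tiles were imaged over ~14 h. kobs, kcat and KM were obtained by fitting normalised per-tile medians to exponential decays and then applying weighted Michaelis–Menten fits across concentrations.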

glucosamine-6-phosphate [2] = variants of: B1; assay: self-cleavage kobs at 2500 uM GlcN6P; higher = faster cleavage; RNA array
Summary of the method: as §1

glucosamine-6-phosphate [3] = variants of: B1; assay: KM; higher = weaker cofactor use; RNA array
Summary of the method: as §1

glucosamine-6-phosphate [4] = variants of: B1; assay: self-cleavage kobs at 640 uM GlcN6P; higher = faster cleavage; RNA array
Summary of the method: as §1

glucosamine-6-phosphate [5] = variants of: B1; assay: self-cleavage kobs at 10000 uM GlcN6P; higher = faster cleavage; RNA array
Summary of the method: as §1

glucosamine-6-phosphate [6] = variants of: B1; assay: self-cleavage kobs at 40 uM GlcN6P; higher = faster cleavage; RNA array
Summary of the method: as §1

glucosamine-6-phosphate [7] = variants of: B1; assay: self-cleavage kobs at 160 uM GlcN6P; higher = faster cleavage; RNA array
Summary of the method: as §1

Row | Variant | kcat (glucosamine-6-phosphate [1]) [s⁻¹] | self-cleavage kobs at 2500 uM GlcN6P (glucosamine-6-phosphate [2]) [s⁻¹] | KM (glucosamine-6-phosphate [3]) [µM] | self-cleavage kobs at 640 uM GlcN6P (glucosamine-6-phosphate [4]) [s⁻¹] | self-cleavage kobs at 10000 uM GlcN6P (glucosamine-6-phosphate [5]) [s⁻¹] | self-cleavage kobs at 40 uM GlcN6P (glucosamine-6-phosphate [6]) [s⁻¹] | self-cleavage kobs at 160 uM GlcN6P (glucosamine-6-phosphate [7]) [s⁻¹]
1 | AUAAAAGCGCCAGAACUACAGAAAUGUAGUUGACGAGGAGGAGGUUUAUCGAAUUUUCGGCGGACGCCGCCAAA [U65C U69G] | 4.17e-05 ± 1.1e-05 | 5.5e-05 ± 2.3e-05 |  |  |  |  | 
2 | AUAAAAGCGCCAGAACUACAGAAAUGUAGUUAACGAGGAGGAGGUUUAACGAAGUUUCAGCGGAUGUCUCCAAA [G32A U49A U54G G59A C67U] | 1.76e-05 ± 5.6e-06 |  |  |  |  |  | 
3 | AUAAAAGCGCCAGAACUACAGAAAUGUAGUUGACGAGGAGGAGGUAUAUCGAAUUCUCGGCGGAUGCCUCCAAA [U46A U56C] | 0.0005 ± 4.2e-05 | 0.000362 ± 8.4e-05 | 1350 ± 250 | 0.000158 ± 3.2e-05 | 0.000424 ± 8.3e-05 |  | 
4 | AUAAAAGCGCCAGAACUACAGAAAUGUAGUUGACGAGGAGGAGGUUUAUCGAAUUUUUGGCGGAUGUCUCCAAA [C58U C67U] | 2.38e-05 ± 3.4e-06 | 2.92e-05 ± 8e-06 |  |  | 2.01e-05 ± 6.4e-06 |  | 
5 | AUAAAAGCGCCAGCACUACAGAAAUGUAGUUGACGAGGAGGAGGUUUAUCGAAUUUUCGGCGGAUGCAUCCAAA [A14C C68A] | 2.76e-05 ± 9.8e-06 | 3.95e-05 ± 1.8e-05 |  |  |  |  | 
6 | AUAAAAGCGCAAGAACUACAGAAAUGUAGUGGACGAGGAGGAGGUUUAUCGAAUUUUCGGCGGAUGCCUCCAAA [C11A U31G] | 0.000375 ± 9.9e-05 | 0.000179 ± 3.7e-05 | 3900 ± 1600 | 4.58e-05 ± 1.1e-05 | 0.000253 ± 5.7e-05 |  | 
7 | AUAAAAGCGCCAGAACUACAGAAAUGUAGUAGACGAGGAGGAGGUUUAUCGAAUUUUCAGCGGAUGCCUCCAAA [U31A G59A] | 0.000128 ± 1.5e-05 | 5.49e-05 ± 1.7e-05 | 2710 ± 740 | 2.94e-05 ± 1.4e-05 | 0.000104 ± 2.3e-05 |  | 
8 | AUAAAAGCGCCAGUACUACAGAAAUGUAGUUGACGAGGCGGAGGUUUAUCGAAUUUUCGGCGGAUGCCUCCAAA [A14U A39C] | 0.00121 ± 0.00019 | 0.000537 ± 8.2e-05 | 2790 ± 700 | 0.000203 ± 2.4e-05 | 0.000981 ± 9.1e-05 | 2.83e-05 ± 7.2e-06 | 7.69e-05 ± 1.2e-05
9 | AUAAAAGCGCAAGAACUACAGAAAUGUAGUUGACGAGGAGGAGGAUUAUCGAAUUUUCGGCGGAUGCCUCCAAA [C11A U45A] | 0.000361 ± 6.9e-05 | 0.000214 ± 3.6e-05 | 3010 ± 1100 | 5.63e-05 ± 1.2e-05 | 0.000262 ± 3.8e-05 |  | 
